Publication PMC4576200 (Viruses, 2015)

Target: the molecule itself
Experiment: AUC

B1: gp5β-BC, solvent-exposed part of the β-helical domain of bacteriophage T4 gene product 5 (residues 483–575) (domain or fragment, UniProt P16009 483-575, looked up)
chain: RGDETKTVEGNGTILVKGNVTIIVEGNADITVKGDATTLVEGNQTNTVNGNLSWKVAGTVDWDVGGDWTEKMASMSSISSGQYTIDGSRIDIG
  stoichiometry N: 3
